The record followed here is a protein production outcome set (Wang et al. 2014).

A short description of this data set: label from the status in PepcDB records.

Turning to “MQRKGDTPATLDLFADQTPQPRRDEQIGPGSWLFSGFALPAMPTLLLALEQTLGHSPFRHMLTPGGLSMSAALSSCGPLGWITDRHGYRYSDVDPQTGQPWPAMPDAFMQLAQSAALAAGYRGFVPDACLINRYIPGAKMSLHQDKDEHDHRWPVVSVSLGIPAIFQFGGMQRSDKTRRISLFHGDVVVWGGEDRLRFHGILPIKQAEHPLLGEQRINLTFRKAGRDSLEHHHHHH”, the protein production entry is “not failed”.

As to “MQRLEVREPVPYPILVGEGVLKEVPPLAGPAALLFDRRVEGFAQEVAKALGVRHLLGLPGGEAAKSLEVYGKVLSWLAEKGLPRNATLLVVGGGTLTDLGGFVAATYLRGVAYLAFPTTTLAIVDASVGGKTGINLPEGKNLVGAFHFPQGVYAELRALKTLPLPTFKEGLVEAFKHGLIAGDEALLKVEDLTPQSPRLEAFLARAVAVKVRVTEEDPLEKGKRRLLNLGHTLGHALEAQTRHALPHGMAVAYGLLYAALLGRALGGEDLLPPVRRLLLWLSPPPLPPLAFEDLLPYLLRDKKKVSESLHWVVPLAPGRLVVRPLPEGLLREAFAAWREELKGLGLLR”, the protein production result is “not failed”.

“MQRLNLGCGQYPKAGFLNVDVDPLAKADVFHDLSSFPYPFEDARFDLVEMDHVLEHLPSPRDAMREIWRILKPGGTLRLRVPHFSRGFSHYDHKCGFDVTFPLYFDPTFPGGYTGIPFEHVQTRLVWFAQPWLKRQVLGNFAFNVGKMLGMVFDALGNIAPLATSRLFCFWVGGYEEITFELRRPTNTLEHHHHHH”: the protein production entry is listed as “not failed”.

Turning to “MQRLQASLERRQVGIYFAAMALGAVLAWHRPGLQVGEATLNLMLAGMLLATFMQVPLAGWRATLPGMRFLGVLLSVNFVLVPALVWGLAALLPADPMIRLAVLLVLLAPCIDYVVTFAQLGRADARALLAATPVLLCGQMLLLPLYLNVMLGSDAAALIRPGPFVQAFVWLIALPLAAATGVQWAAARSAAWRGAASVVGLLPVPATALVLATIVAAVAPRMALAGEAVSRVVPVYLLFAVIAPAAGWLAARRARLAAPQARAVAFSAGTRNSLVVLPLALAVPGGVPLLPALIVAQTLVELCAELLYVRVFGRAGKDRAGEG”, the protein production result is reported as “failed”.

As for “MQRTAVLPYVQLLKPITWFAPMWAFGCGLISSGLPVWDRWPVIALGVLLCGPLVCGTSQAVNDWFDRHVDAINEPDRPIPSGRIPGRVGLYIAIGWTVLSLAVAWVLGPWVFGAAIFGLALAWAYSAPPFRLKGNGWWGNSAVGLCYEGLPWFTGAAVIAGALPDTRIVLLAVLYSIGAHGIMTLNDFKAVEGDIRMGVRSLPVQLGVAPAARLACAVMAVPQMVVIGLVASWDRPYHAGAVGLLLLAQFVLMARLLKRPRELAPWYNATGTTLYVIGMMVSAFALAPLIGAVELAPLIGAAP”, the protein production entry is on record as “failed”.

For the sequence “MQSDKVLNLPAGYFGIVLGTIGMGFAWRYASQVWQVSHWLGDGLVILAMIIWGLLTSAFIARLIRFPHSVLAEVRHPVLSSFVSLFPATTMLVAIGFVPWFRPLAVCLFSFGVVVQLAYAAWQTAGLWRGSHPEEATTPGLYLPTVANNFISAMACGALGYTDAGLVFLGAGVFSWLSLEPVILQRLRSSGELPTALRTSLGIQLAPALVACSAWLSVNGGEGDTLAKMLFGYGLLQLLFMLRLMPWYLSQPFNASFWSFSFGVSALATTGLHLGSGSDNGFFHTLAVPLFIFTNFIIAILLIRTFALLMQGKLLVRTERAVLMKAEDKE”, the protein production entry is “not failed”.

In the case of “MQSGDGRRGRLRIFFGFAAGVGKTYGMLTEAHELLMMGKHVVVGYIEPHDRPDTNRLLEGLPQIPPKNIFYKQMVLTEPDIDQIIQQKPEIVLIDELAHSNAEGSRNRKRYQDIDELLNAGIDVFTTVNVQHIESLNDIVEEVTGIEVKETVPDTFLRQATIRVIDVEPDELIERLEQGKIYANENAKRALKNFFIPQKLDQLRGLAIQRASDHINRISGKTIGIQSKLLTVVNDAFPKMTEKCIRWTARLAQGLVVDWTVIQVRTQENTPTNIPLADKLGAEVISIEEDDSFETIVEFAKMTGVTDIIMGKNLRQPWYEKIFIEAFDDRLLKRLKDTELHLIPFNEEKRSLFFKTRKVIEGGGKDLVIAIGGVFLATVVTELMQYIHVGDQNLMLIYISFVLLVARTTSGYFWSSLSSILSVLSFNWFFVEPLYSLTVYKQGYPFTLLLMLVVALMSSNLMIRLKKQADTSMKKEHQMEILYELNKRYVLVESRKQILDISATYLSRLLEREVIIFDRQVKTESVHCINEKKSILNNEDEAAVAFWAAKNQKEAGNGTDTLNGAKGFYLPIAAGRKTLAVLGIERNADLDLENDQLNYLKLVLTQIAVILEQTELKDEKEQVELENEREKVRSNLLRAVSHDLRTPLTVISGIAETLGIGNDLKEETQRKLLKDIQEESQWLIRMVENLLSITRINMDTMKVNKTAEPVEEVIEAVYKHLRKVYPDGQVDIHLPEEVIFIQADPILIEQALFNLIENAFRHGENDLPVKLNVYQEKEQTVFEIENHGEIPLKQFQKIQSNLSGTNEVPVDSKNGLGIGLSIVKTIVHAHNGKMEMTIGRGKTLVRIYLK”, the protein production result is recorded as “failed”.

In the case of “MQSKGATGSKSEQRTGLLNGVAAYGMWGLVPLYWPLLKPAGAVEILAHRMVWSLALVAVALLVMRRWAWAGELLRQPRKLALVTVAAAVITVNWGVYIWAVNAGHVVEASLGYFINPLVTIALGVLILKERMRPWQWAAVGVAFTAVVVLTVGYGQPPWISLCLAFSFGTYGLVKKKVNLGGIESLAAETAIQFLPALAYLLWLTASGGSTFGTQGGAGHAALLASTGVVTAIPLVCFGAAAIRVPLSTLGLLQYLAPVFQFLLGILYFHEAMPPERWAGFALVWLALSLLTWDALRAAHRASRALRTAPSRIVADEQITPVYEHP”, the protein production result is reported as “failed”.

As to “MQSSSSLAPVAPIIFLAIAIAAINWIDLARGKNRTSVAYPLSLLTTLVLTAWFGIDAAGGETHYAFANLVVIDPMANVLAAFCSLGMLLTLIYTRSYLAERDMFAGEFYMLALFTLGGQIVMITGNNFLTLYLGLELLSLSSYALVALRRDSRVTSESAIKYFVLGALASGFLLYGMSMMYGATGSLNLGEVFRVVESGRVNTTMLAFGVVFIVAGVAFKLGAAPFHMWIPDIYQGSPTAVTLLIAAGPKVAAFALIIRLLVEGLLPLATDWQVMLVILSIASLVIGNLTAIVQTNLKRMLAYSTISHMGFVLLGMLSGVVANKADGAVNAYSSSMFYSITYMLTTLGTFGLILVRTRKGFEAETLDDLKGMSRRHPWFAFLMLVMMFSMAGIPPTVGFYAKLSVLQAVVSAGMSWLAVLAVVFSLIGAFYYLRIVKLMYFDAPVGEEPLEASTGLRSVLSLNGLAVILLGLFPAGLMDLCFQAIRATLAS”, the protein production entry is listed as “failed”.

Take “MQSTAFSLYIIDTLHDSLIFATILMSALLPKIILGPLGGVFVDWFDRKKFLVVIDLISGVLLLISALVYGNNLSLPIIYFICISLGIMNSVDEPLVVALIPSLVEKEKLVTANSINMFSTALGNIIGPILGAVVYSSFGIDTILYINASSFIIGAILEFMINIENKKKISQSKTIFNFLEDFKAGLIYIVRNRIILVIVVSIFFQNFFFNGATTVGVPFLAKQILKVSNAEFAILETTLIVGSIFGLLVASNLIKDKPLASLFPKLLFVISVCFLMIGLICIFLLKKQLMAYVFIAIIYICLGMLSMNVNVLFQTEMQKIVDESMFGRVSSLILSLIMSSIPLGQLVYGYLFKVVSPSIPFLVTFIAICCVSTLFSLSLRNSEL”: the protein production result was “failed”.

For the sequence “MQSTIVIVNLLGAVALLLFGLAQVKDGVTRAFGMKLRSVLATGTQNGPRSFFSGFFATVALQSSTATALTVASFAERDLIKPRMAQVVLLGANVGTAVTAWIVAAGVEWLSPLLILAGIILKKGSSNARQGGGTAVIGIGLMLLSLHLLSGATEPMRASPALGVFIGLLDGAWPVALIFSAVLAFVSSSSLAVVVLILSLTATGTLSTGLIIVLILGANLGGAIPPVIATLSGPASARRITIGNLVVRTIGCLIAMPLASYGATYLQQLPLSPAKLPVDAHLIFNLILATLAWPFSGLISDLMAKLVPGDPKAEDGPNFLDQQALDVPVVALANATREVLSVGDSIERMLIRAENAFKHNDLAPLQEVALLEKKVDRRQQEVKVYLSQLGRKGLTDEEARRSIAIIDYAINLEHIGDIIEKGICEQIRKKVLNSFKFSDDGYEELKTLFDMTIENLRAAQSILVTGDFELARRLMESKVDIRRLEKQSSNRHLERLRDGLAESMQTSSLHLDMLRDLKRINAHIVTVAHPILDESGVLIESRLRYAEPRA”, the protein production entry is “failed”.
